The values below come from patent US20170129967A1 (CHEMOTHERAPEUTISCHES FORSCHUNGSINSTITUT GEORG SPEYER HAUS, published 2017).

The assay addresses human ErbB2 (HER2) expressed on cells (Renca-lacZ/ErbB2 murine renal cell carcinoma cells); MDA-MB453 human … (human, UniProt P04626 23-1255). Nature of the assay: cell-based or functional assay.

B1: chimeric antigen receptor (CAR) 5.28.z, on the surface of clonal NK-92/5.28.z cells (receptor)
chain: QVQLQQSGPELKKPGETVKISCKASGYPFTNYGMNWVKQAPGQGLKWMGWINTSTGESTFADDFKGRFDFSLETSANTAYLQINNLKSEDSATYFCARWEVYHGYVPYWGQGTTVTVSSGGGGSGGGGSGGGGSDIQLTQSHKFLSTSVGDRVSITCKASQDVYNAVAWYQQKPGQSPKLLIYSASSRYTGVPSRFTGSGSGPDFTFTISSVQAEDLAVYFCQQHFRTPFTFGSGTKLEIKALSNSIMYFSHFVPVFLPAKPTTTPAPRPPTPAPTIASQPLSLRPEACRPAAGGAVHTRGLDKPFWVLVVVGGVLACYSLLVTVAFIIFWVRSKRSRLLHSDYMNMTPRRPGPTRKHYQPYAPPRDFAAYRSRVKFSRSADAPAYQQGQNQLYNELNLGRREEYDVLDKRRGRDPEMGGKPRRKNPQEGLYNELQKDKMAEAYSEIGMKGERRRGKGHDGLYQGLSTATKDTYDALHMQALPPR
As for B1, the “specific lysis at an E/T ratio of 10:1 (NK-92/5.28.z irradiated with 10 Gy, MDA-MB453 target cells, 2 h co-incubation)” value was found to be 65 % specific lysis.
